Among the data in patent US20170056486A1 are peptide exchange yield values, retold here.

For the first experiment, the target named is HLA-A*24 (human). The experiment in a line: UV-exchange ELISA (anti-b2m); yield 20%-49%.
KFFDDLGDELLF showed a peptide exchange yield of 20 to 49%.
In turn, VYNAVSTSF gave a peptide exchange yield of 20 to 49%.
For the molecule KYLSVQLTL, the peptide exchange yield is 20 to 49%.
Still for that read-out and setting: under YFIKSPPSQLF stands 20 to 49%.
Same read-out and setting: under VYPDTVALTF stands 20 to 49%; under KYTSYILAF, 20 to 49%.
Turning to SFLNIEKTEILF, the peptide exchange yield fell in the range of 20 to 49%.
Still for that read-out and setting: under VYTPVLEHL stands 20 to 49%; under KYYRQTLLF, 20 to 49%.
MYLKLVQLF came in with a peptide exchange yield of 20 to 49%.
For the molecule SYAPPSEDLFL, the peptide exchange yield was in the range of 20 to 49%.
The same measure, in the same setting: under KYPDIASPTF stands 20 to 49%; under SYVASFFLL, 20 to 49%.
Molecule VYNYAEQTL showed a peptide exchange yield of 20 to 49%.
In the case of IFITKALQI, the peptide exchange yield lay within 20 to 49%.
Regarding DYVGFTLKI, the peptide exchange yield lay within 20 to 49%.
Still for that read-out and setting: under SYAPPSEDLF stands 20 to 49%.

Another experiment concerns the target HLA-A*24 (human). The experiment in a line: UV-exchange ELISA (anti-b2m); yield >=75%.
In turn, VYTGIDHHW returned a peptide exchange yield of over 75%.
IYAGVGEFSF registered a peptide exchange yield of over 75%.
The molecule KYTHFIQSF registered a peptide exchange yield of over 75%.
The molecule QYLEKYYNL gave a peptide exchange yield of over 75%.
KQLDIANYELF displayed a peptide exchange yield of over 75%.
Molecule SYSEIKDFL gave a peptide exchange yield of over 75%.
In turn, IYSVGAFENF returned a peptide exchange yield of over 75%.
For the molecule AFIETPIPLF, the peptide exchange yield was over 75%.
SYLNEAFSF yielded a peptide exchange yield of over 75%.
Regarding RYVFPLPYL, the peptide exchange yield was over 75%.
As for TYIDTRTVF, the peptide exchange yield is over 75%.
On to IFTDIFHYL, for which the peptide exchange yield is over 75%.
For RFLMKSYSF, the peptide exchange yield is over 75%.
IYISNSIYF showed a peptide exchange yield of over 75%.
On to KFDDVTMLF, for which the peptide exchange yield was over 75%.
Regarding AYKSEVVYF, the peptide exchange yield was over 75%.
EYLQNLNHI displayed a peptide exchange yield of over 75%.
Molecule VFIAQGYTL showed a peptide exchange yield of over 75%.
Turning to TFITQSPLL, the peptide exchange yield is over 75%.
SYQVIFQHF returned a peptide exchange yield of over 75%.
For the molecule RYHPTTCTI, the peptide exchange yield is over 75%.
GYIRGSWQF returned a peptide exchange yield of over 75%.
VFTTSSNIF registered a peptide exchange yield of over 75%.
In turn, AFGQETNVPLNNF had a peptide exchange yield of over 75%.
Still for that read-out and setting: under AYAANVHYL stands over 75%; under GYIKLINFI, over 75%.
In the case of QYLDVLHAL, the peptide exchange yield was over 75%.
Molecule QFITSTNTF had a peptide exchange yield of over 75%.
Turning to AYAQLGYLLF, the peptide exchange yield was over 75%.
The molecule VYPHFSTTNLI registered a peptide exchange yield of over 75%.
The molecule LYTETRLQF yielded a peptide exchange yield of over 75%.
Still for that read-out and setting: under VFIDHPVHL stands over 75%.
Consider QYLVHVNDL, for which the peptide exchange yield was over 75%.
Still for that read-out and setting: under FFHEGQYVF stands over 75%.
NYENKQYLF: the peptide exchange yield was over 75%.
The same measure, in the same setting: under VYMNVMTRL stands over 75%; under AFADVSVKF, over 75%.
As to KYGDFKLLEF, the peptide exchange yield was over 75%.
VYSSQFETI: the peptide exchange yield was over 75%.
In the case of SYGTILSHI, the peptide exchange yield was over 75%.
On the same count and under the same terms, under KYSDVKNLI stands over 75%; under AFPTFSVQL, over 75%; under TYLEKIDGF, over 75%.
Take NYMPGQLTI: the peptide exchange yield is over 75%.
Still for that read-out and setting: under KYGTLDVTF stands over 75%; under NYGVLHVTF, over 75%; under KYIGNLDLL, over 75%.
With VFKSEGAYF, the peptide exchange yield is over 75%.
With TYNPNLQDKL, the peptide exchange yield is over 75%.
As to NYLDVATFL, the peptide exchange yield is over 75%.
FYPQIINTF had a peptide exchange yield of over 75%.
